Assay results as given in patent US5910570.
Like-named read-outs stand apart in the source and are kept apart here.

What was measured:
[1] = target: serine containing acceptor peptide …
[2] = target: apomucin (deglycosylated mucin) prepared from bovine submaxillary mucin (bovine)
[3] = target: serine containing acceptor peptide …; remark: listed apart in the source
[4] = target: apomucin (deglycosylated mucin) prepared from bovine submaxillary mucin (bovine); remark: listed apart in the source

Substance | Km [1] [mM] | specific activity [2] [U/mg protein] | Km [3] [mM] | Total activity (U), cell lysate [4] [U]
soluble, secreted recombinant bovine GalNAc-transferase (GalNAcTs) expressed in Sf9 cells (enzyme) | 3.5 | 2160 | 3.6 | 
cloned full-length (membrane bound) bovine GalNAc-transferase expressed in Sf9 cells (enzyme) |  |  |  | 16.2
